# Data from IntAct's records for PubMed 18394558.
# B1: Cyclin-dependent kinase 4 inhibitor C (Homo sapiens), P42773 (parent)
# chain: MAEPWGNELASAAARGDLEQLTSLLQNNVNVNAQNGFGRTALQVMKLGNPEIARRLLLRGANPDLKDRTGFAVIHDAARAGFLDTLQTLLEFQADVNIEDNEGNLPLHLAAKEGHLRVVEFLVKHTASNVGHRNHKGDTACDLARLYGRNEVVSLMQANGAGGATNLQ
# Variants of: B1
# Settings: with cdk6_human CDK6, Q00534
# Sequence of cdk6_human CDK6, Q00534 (Q00534 whole entry): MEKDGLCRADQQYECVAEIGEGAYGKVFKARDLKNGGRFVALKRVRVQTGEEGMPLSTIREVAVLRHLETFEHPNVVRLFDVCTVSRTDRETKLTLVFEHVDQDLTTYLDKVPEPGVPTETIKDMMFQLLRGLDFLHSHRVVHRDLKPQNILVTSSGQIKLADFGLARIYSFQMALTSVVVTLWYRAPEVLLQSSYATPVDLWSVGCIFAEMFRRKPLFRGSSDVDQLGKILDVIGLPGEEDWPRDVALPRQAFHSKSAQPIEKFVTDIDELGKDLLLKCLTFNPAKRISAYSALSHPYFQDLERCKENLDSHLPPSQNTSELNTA
row,effect of a mutation on the interaction,Variant
1,decreasing interaction,A61D
2,disrupting interaction,F37I
